# Results as given in patent US20250250343A1.
# Read-outs that look alike come from different tables or passages of the source.
# Key:
# VEGF (human) [1] = biological target: VEGF (human) (UniProt P15692)
# VEGF (human) [2] = biological target: VEGF (human) (UniProt P15692); remark: listed apart in the source
# VEGF (human) [3] = biological target: VEGF (human) (UniProt P15692); remark: listed apart in the source
# human Tie2 (human) [4] = biological target: human Tie2 (human) (UniProt Q02763)
# human Tie2 (human) [5] = biological target: human Tie2 (human) (UniProt Q02763); remark: listed apart in the source
# human Tie2 (human) [6] = biological target: human Tie2 (human) (UniProt Q02763); remark: listed apart in the source
# human Tie2 (human) [7] = biological target: human Tie2 (human) (UniProt Q02763); remark: listed apart in the source
# human Tie2 (human) [8] = biological target: human Tie2 (human) (UniProt Q02763); remark: listed apart in the source
# Chain of Ang1 (Q15389 20-498 limits assumed): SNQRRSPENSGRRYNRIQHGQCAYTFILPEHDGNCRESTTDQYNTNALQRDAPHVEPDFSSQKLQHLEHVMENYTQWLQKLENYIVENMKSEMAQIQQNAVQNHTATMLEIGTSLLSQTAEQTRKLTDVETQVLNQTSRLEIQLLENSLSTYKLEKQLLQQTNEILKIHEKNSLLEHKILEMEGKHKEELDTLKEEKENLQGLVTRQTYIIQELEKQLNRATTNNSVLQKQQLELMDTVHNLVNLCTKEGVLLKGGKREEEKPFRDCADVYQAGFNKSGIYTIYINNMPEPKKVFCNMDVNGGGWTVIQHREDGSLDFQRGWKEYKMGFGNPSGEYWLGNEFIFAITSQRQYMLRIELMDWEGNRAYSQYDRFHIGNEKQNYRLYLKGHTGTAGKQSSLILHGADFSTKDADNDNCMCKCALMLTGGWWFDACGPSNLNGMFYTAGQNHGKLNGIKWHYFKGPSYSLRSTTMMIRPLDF
# Chain of human Tie2 (human) (Q02763 23-1124): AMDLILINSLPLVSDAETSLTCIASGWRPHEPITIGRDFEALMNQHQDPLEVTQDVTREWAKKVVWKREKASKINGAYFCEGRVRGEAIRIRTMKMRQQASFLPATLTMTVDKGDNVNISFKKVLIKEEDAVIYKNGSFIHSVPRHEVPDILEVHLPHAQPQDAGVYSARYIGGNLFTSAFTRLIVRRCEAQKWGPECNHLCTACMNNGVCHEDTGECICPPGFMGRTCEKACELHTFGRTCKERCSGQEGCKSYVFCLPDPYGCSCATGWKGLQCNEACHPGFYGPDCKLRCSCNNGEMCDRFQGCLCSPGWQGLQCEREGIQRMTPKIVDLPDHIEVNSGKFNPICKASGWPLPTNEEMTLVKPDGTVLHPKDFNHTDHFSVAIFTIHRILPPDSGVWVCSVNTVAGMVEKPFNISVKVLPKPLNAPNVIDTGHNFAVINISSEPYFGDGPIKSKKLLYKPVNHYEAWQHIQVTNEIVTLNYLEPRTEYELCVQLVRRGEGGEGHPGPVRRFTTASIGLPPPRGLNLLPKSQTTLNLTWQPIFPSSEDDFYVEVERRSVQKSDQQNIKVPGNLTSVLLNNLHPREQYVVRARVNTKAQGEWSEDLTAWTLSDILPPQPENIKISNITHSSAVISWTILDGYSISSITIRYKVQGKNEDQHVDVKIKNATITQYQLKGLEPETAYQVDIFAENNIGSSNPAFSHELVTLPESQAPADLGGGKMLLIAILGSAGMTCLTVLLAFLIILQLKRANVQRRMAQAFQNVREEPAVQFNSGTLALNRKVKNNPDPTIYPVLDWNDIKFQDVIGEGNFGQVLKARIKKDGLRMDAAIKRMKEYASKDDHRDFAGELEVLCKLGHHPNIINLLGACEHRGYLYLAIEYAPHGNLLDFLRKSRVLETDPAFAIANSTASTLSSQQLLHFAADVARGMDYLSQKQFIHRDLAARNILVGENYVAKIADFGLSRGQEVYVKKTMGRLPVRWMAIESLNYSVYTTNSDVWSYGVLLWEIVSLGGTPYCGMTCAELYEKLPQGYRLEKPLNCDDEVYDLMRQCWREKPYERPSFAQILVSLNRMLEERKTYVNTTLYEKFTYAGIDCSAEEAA
# Chain of VEGF (human) (P15692 other isoform, or with tags, fused parts or gaps limits assumed): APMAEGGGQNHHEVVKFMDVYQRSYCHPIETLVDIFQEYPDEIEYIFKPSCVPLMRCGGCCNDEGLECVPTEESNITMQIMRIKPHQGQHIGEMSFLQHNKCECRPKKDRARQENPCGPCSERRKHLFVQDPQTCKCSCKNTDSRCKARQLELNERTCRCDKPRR
# Chain of Aflibercept-LALA-PG (Fc fusion) (chain): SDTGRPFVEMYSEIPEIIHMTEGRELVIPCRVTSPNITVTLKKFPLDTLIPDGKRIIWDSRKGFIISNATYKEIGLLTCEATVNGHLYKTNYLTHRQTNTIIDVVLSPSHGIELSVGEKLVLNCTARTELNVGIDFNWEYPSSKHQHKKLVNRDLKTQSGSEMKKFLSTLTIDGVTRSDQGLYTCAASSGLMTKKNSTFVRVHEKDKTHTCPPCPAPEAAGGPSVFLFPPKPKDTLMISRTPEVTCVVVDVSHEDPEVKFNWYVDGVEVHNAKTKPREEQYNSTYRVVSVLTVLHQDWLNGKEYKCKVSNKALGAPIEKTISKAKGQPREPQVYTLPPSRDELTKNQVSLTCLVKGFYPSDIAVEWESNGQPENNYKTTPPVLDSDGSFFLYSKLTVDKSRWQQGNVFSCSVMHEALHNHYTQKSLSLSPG
# Chain of Aflibercept (Fc fusion) (chain): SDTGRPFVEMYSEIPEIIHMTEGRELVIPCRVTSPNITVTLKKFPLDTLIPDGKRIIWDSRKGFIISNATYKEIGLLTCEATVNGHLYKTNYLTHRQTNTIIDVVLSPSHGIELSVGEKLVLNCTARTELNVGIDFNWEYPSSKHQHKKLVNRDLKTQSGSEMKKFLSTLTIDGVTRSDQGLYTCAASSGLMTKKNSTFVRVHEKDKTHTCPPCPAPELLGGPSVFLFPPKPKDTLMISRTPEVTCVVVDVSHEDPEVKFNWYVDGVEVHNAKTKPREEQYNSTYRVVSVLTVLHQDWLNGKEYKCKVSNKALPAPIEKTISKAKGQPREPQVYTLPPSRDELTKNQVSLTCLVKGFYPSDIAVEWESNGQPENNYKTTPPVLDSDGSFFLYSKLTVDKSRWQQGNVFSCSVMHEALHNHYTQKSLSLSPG
substance,measurement,setting,value
Aflibercept (Fc fusion),"EC50, VEGF inhibition, KDR/NFAT-RE HEK293 luciferase reporter [Panel C]",VEGF (human) [1],280 pM
Aflibercept-LALA-PG (Fc fusion),"IC50 (read off the curve); % VEGF activity, KDR/NFAT-RE HEK293 luciferase reporter [Panel A]",VEGF (human) [2],600 pM
same,"EC50, VEGF neutralisation, KDR/NFAT-RE HEK293 luciferase reporter",VEGF (human) [3],560 pM
Ang1 (from UniProt Q15389 20-498) (ligand),"EC50, pAkt in HUVEC (MSD ELISA) [Panel B]",human Tie2 (human) [4],1.71 nM
same,"EC50, pTie2 in HUVEC, W/ VEGF (20 nM VEGF-165 per paragraph 153) [Panel E]",human Tie2 (human) [5],2.4 nM
same,"EC50, pTie2 in HUVEC, W/O VEGF [Panel E]",human Tie2 (human) [5],1.61 nM
same,"EC50, pTie2 in HUVEC (in vitro potency)",human Tie2 (human) [6],4.58 nM
same,"EC50, pTIE2 in HUVEC [Panel C]",human Tie2 (human) [7],1.77 nM
same,"EC50, pAkt in HUVEC (MSD ELISA) [Panel B]",human Tie2 (human) [8],4.1 nM
